According to the supplement of paper PMC9233669:
This sample holds only a part of the variants without activity.

Experiments:
[1] = system: biotinyl-Phe-oxazolone; assay: self-aminoacylation, catalytic enhancement (BFO) (fold over background); higher = more active; k-Seq, kA / k0A0; sequences stand for … in GGGAAUGGAUCCACAUCUACGAAUUC…UUCACUGCAGACUUGACGAAGCUG
Method in brief: (§1)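 The uncatalyzed rate is the low-activity peak of a bimodal Gaussian fit, and catalytic enhancement is median kA divided by it. The kA values came from pseudo-first-order fits, with 1000 bootstraps, of per-sequence fraction reacted measured by streptavidin capture, triplicate qPCR and Illumina sequencing. Mutagenized RNA pools with a 21-nt variable region (0.43 μM) were reacted with each biotinyl-aminoacyl-oxazolone at 2–1250 μM in 50 μL HEPES/NaCl/KCl/MgCl2/CaCl2 buffer with 5% acetonitrile, pH 6.9–7.0, for 90 minutes at room temperature.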

[2] = system: biotinyl-Ile-oxazolone; assay: self-aminoacylation, catalytic enhancement (BIO) (fold over background); higher = more active; k-Seq, kA / k0A0; sequences stand for … in GGGAAUGGAUCCACAUCUACGAAUUC…UUCACUGCAGACUUGACGAAGCUG
Method in brief: as §1

[3] = system: biotinyl-Met-oxazolone; assay: self-aminoacylation, catalytic enhancement (BMO) (fold over background); higher = more active; k-Seq, kA / k0A0; sequences stand for … in GGGAAUGGAUCCACAUCUACGAAUUC…UUCACUGCAGACUUGACGAAGCUG
Method in brief: as §1

[4] = system: biotinyl-Val-oxazolone; assay: self-aminoacylation, catalytic enhancement (BVO) (fold over background); higher = more active; k-Seq, kA / k0A0; sequences stand for … in GGGAAUGGAUCCACAUCUACGAAUUC…UUCACUGCAGACUUGACGAAGCUG
Method in brief: as §1

[5] = system: biotinyl-Leu-oxazolone; assay: self-aminoacylation, catalytic enhancement (BLO) (fold over background); higher = more active; k-Seq, kA / k0A0; sequences stand for … in GGGAAUGGAUCCACAUCUACGAAUUC…UUCACUGCAGACUUGACGAAGCUG
Method in brief: as §1

[6] = system: biotinyl-Trp-oxazolone; assay: self-aminoacylation, catalytic enhancement (BWO) (fold over background); higher = more active; k-Seq, kA / k0A0; sequences stand for … in GGGAAUGGAUCCACAUCUACGAAUUC…UUCACUGCAGACUUGACGAAGCUG
Method in brief: as §1

Sequence | self-aminoacylation [1] | self-aminoacylation [2] | self-aminoacylation [3] | self-aminoacylation [4] | self-aminoacylation [5] | self-aminoacylation [6]
AAGUUUGCAAAUAGUCGCAAC [Fam3.1 aminoacylation ribozyme variant] | 0.731 | 0.917 | 1.07 | 0.838 | 1.01 | 1.01
AAGUUUGCAAAUAGUCGCUAG [Fam3.1 aminoacylation ribozyme variant] | 0.824 | 1.15 | 0.905 | 0.856 | 1 | 1.84
AAGUUUGCAAUUAGUCGCAAG [Fam3.1 aminoacylation ribozyme variant] | 0.786 | 1.08 | 0.922 | 0.898 | 0.909 | 0.6
AAGUUUGCCAAAAGUCGCAAG [Fam3.1 aminoacylation ribozyme variant] | 1.01 | 1.41 | 1.39 | 1.36 | 1.57 | 1.54
AAGUUUGCCAAUAGUCGCCAG [Fam3.1 aminoacylation ribozyme variant] | 12.8 | 1.52 | 2.27 | 1.54 | 2.4 | 2.22
AAGUUUGCCAAUAGUCGCUAG [Fam3.1 aminoacylation ribozyme variant] | 0.897 | 1.15 | 0.716 | 0.926 | 0.951 | 2.08
AAGUUUGCGAAUACUCGCAAG [Fam3.1 aminoacylation ribozyme variant] | 3.35 | 1.36 | 1.13 | 0.993 | 1.4 | 2.24
AAGUUUGCGAAUAGUCGCCAG [Fam3.1 aminoacylation ribozyme variant] | 9.03 | 1.74 | 1.8 | 1.78 | 1.29 | 1.62
AAGUUUGCGAAUAGUCGCUAG [Fam3.1 aminoacylation ribozyme variant] | 3.9 | 1.38 | 1.45 | 1 | 0.918 | 1.4
AAGUUUGCGAAUAGUCGGAAG [Fam3.1 aminoacylation ribozyme variant] | 0.764 | 0.977 | 1.38 | 0.964 | 1.1 | 2.32
AAGUUUGCGAAUUGUCGCAAG [Fam3.1 aminoacylation ribozyme variant] | 6.83 | 1.77 | 2.15 | 2.23 | 1.94 | 2.19
AAGUUUGCGAGUAGUCGCAAG [Fam3.1 aminoacylation ribozyme variant] | 1.71 | 1.12 | 0.918 | 0.882 | 1.22 | 1.32
AAGUUUGCUAAAACUCGCAAG [Fam3.1 aminoacylation ribozyme variant] | 0.521 | 0.916 | 0.668 | 0.821 | 0.998 | 0.796
AAGUUUGCUAAAAGUAGCAAG [Fam3.1 aminoacylation ribozyme variant] | 1.04 | 1.02 | 1.16 | 0.783 | 0.818 | 1.03
AAGUUUGCUAAAAGUCGCAAG [Fam3.1 aminoacylation ribozyme variant] | 17.1 | 1.24 | 1.33 | 1.08 | 1.01 | 4.97
AAGUUUGCUAACAGACGCAAG [Fam3.1 aminoacylation ribozyme variant] | 1.06 | 0.512 | 0.478 | 0.733 | 0.38 | 0.444
AAGUUUGCUAACAGUCGCAUG [Fam3.1 aminoacylation ribozyme variant] | 0.642 | 0.963 | 0.804 | 0.899 | 0.89 | 1.11
AAGUUUGCUAACAGUCGCUAG [Fam3.1 aminoacylation ribozyme variant] | 1.36 | 0.756 | 0.738 | 0.899 | 0.823 | 0.96
AAGUUUGCUAAGAGGCGCAAG [Fam3.1 aminoacylation ribozyme variant] | 1.21 | 0.727 | 0.759 | 0.656 | 0.547 | 0.895
AAGUUUGCUAAGAGUCCCAAG [Fam3.1 aminoacylation ribozyme variant] | 1.48 | 0.788 | 0.787 | 0.672 | 0.765 | 1
AAGUUUGCUAAGAGUCGCAAC [Fam3.1 aminoacylation ribozyme variant] | 0.845 | 1.21 | 1.07 | 1.19 | 1.27 | 1.28
AAGUUUGCUAAGAGUCGCACG [Fam3.1 aminoacylation ribozyme variant] | 5.94 | 1.17 | 0.636 | 1.12 | 0.977 | 2.06

Sequence | self-aminoacylation [1] | self-aminoacylation [2] | self-aminoacylation [3] | self-aminoacylation [4] | self-aminoacylation [5] | self-aminoacylation [6]
AAGUUUGCUAAGAGUCUCAAG [Fam3.1 aminoacylation ribozyme variant] | 1.02 | 0.81 | 0.651 | 0.823 | 0.775 | 1.01
AAGUUUGCUAAUAAUCCCAAG [Fam3.1 aminoacylation ribozyme variant] | 1.03 | 0.76 | 0.949 | 0.961 | 0.736 | 1.38
AAGUUUGCUAAUACUAGCAAG [Fam3.1 aminoacylation ribozyme variant] | 0.734 | 0.59 | 0.798 | 0.567 | 0.722 | 0.476
AAGUUUGCUAAUACUCGCAAG [Fam3.1 aminoacylation ribozyme variant] | 0.812 | 0.659 | 0.569 | 0.652 | 0.553 | 0.607
AAGUUUGCUAAUACUCGUAAG [Fam3.1 aminoacylation ribozyme variant] | 0.706 | 0.57 | 0.547 | 0.636 | 0.559 | 0.557
AAGUUUGCUAAUAGACUCAAG [Fam3.1 aminoacylation ribozyme variant] | 0.758 | 0.416 | 0.332 | 0.427 | 0.313 | 0.449
AAGUUUGCUAAUAGAUGCAAG [Fam3.1 aminoacylation ribozyme variant] | 0.814 | 0.954 | 0.789 | 0.911 | 0.82 | 0.784
AAGUUUGCUAAUAGCCGAAAG [Fam3.1 aminoacylation ribozyme variant] | 1.6 | 1.09 | 0.766 | 0.677 | 1.03 | 1.28
AAGUUUGCUAAUAGCCGCAGG [Fam3.1 aminoacylation ribozyme variant] | 0.671 | 0.792 | 0.745 | 0.853 | 0.765 | 0.916
AAGUUUGCUAAUAGCCGGAAG [Fam3.1 aminoacylation ribozyme variant] | 3.2 | 1.25 | 1.14 | 1.25 | 1.4 | 2.38
AAGUUUGCUAAUAGGCGCAAA [Fam3.1 aminoacylation ribozyme variant] | 1.74 | 1.46 | 1.63 | 1.1 | 1.74 | 1.48
AAGUUUGCUAAUAGUAGCAGG [Fam3.1 aminoacylation ribozyme variant] | 1.71 | 1.08 | 1.16 | 0.985 | 1.08 | 0.837
AAGUUUGCUAAUAGUAGCAUG [Fam3.1 aminoacylation ribozyme variant] | 1.67 | 1.04 | 0.815 | 0.851 | 0.991 | 1.03
AAGUUUGCUAAUAGUCACCAG [Fam3.1 aminoacylation ribozyme variant] | 2.77 | 0.949 | 0.962 | 0.997 | 0.762 | 1.21
AAGUUUGCUAAUAGUCCUAAG [Fam3.1 aminoacylation ribozyme variant] | 14.5 | 1.21 | 1.31 | 1.13 | 1.05 | 4.71
AAGUUUGCUAAUAGUCGAAAU [Fam3.1 aminoacylation ribozyme variant] | 1.52 | 1.31 | 1.39 | 1.37 | 1.01 | 2
AAGUUUGCUAAUAGUCGCAGA [Fam3.1 aminoacylation ribozyme variant] | 1.77 | 1.54 | 1.03 | 0.914 | 1.12 | 0.729
AAGUUUGCUAAUAGUCGCAGG [Fam3.1 aminoacylation ribozyme variant] | 2.2 | 1.29 | 1.31 | 1.31 | 1.38 | 1.45
AAGUUUGCUAAUAGUCGCCAU [Fam3.1 aminoacylation ribozyme variant] | 0.768 | 1.27 | 1.44 | 1.2 | 1.24 | 1.08
AAGUUUGCUAAUAGUCGCGAU [Fam3.1 aminoacylation ribozyme variant] | 1.53 | 1.46 | 1.33 | 1.37 | 1.47 | 1.86
AAGUUUGCUAAUAGUCGCUGG [Fam3.1 aminoacylation ribozyme variant] | 1.72 | 1.21 | 1.67 | 1.25 | 0.78 | 1.18
